Experimental data reported in patent US6670452B2, “Non-naturally occurring lipoprotein particle” (University of Strathclyde, priority 1996, dated 2003).
Entries after “also recorded” stand apart in the source; their conditions may differ. No end group written: not given here. lipid anchor = not defined here

Tests used:
[1] = tested on: U937 cells; assay: U937 cell growth (proliferation) assay; format: cell-based; conditions: DFCS 5% v/v, peptide 0.03 mol/mol cholesterol oleate, 72 hours, range of cholesterol concentrations
Experimental: U937 stock cultures were grown at 37° C. in RPMI 1640 media supplemented glutamine (10 mM), gentamicin (50 μg/ml), fungizone (0.5 μg/ml) and 10% (v/v) foetal calf serum (FCS). Cells were maintained in a humidified 5% CO2, atmosphere between 1-8×10^5 cells/ml and sub-cultured twice weekly.
All growth assays were conducted over 72 hours in 24 well plates unless otherwise indicated. One day before each growth experiment, cells were centrifuged at 1500 rpm for 5 minutes and resuspended in RPM: medium containing 5% (v/v) delipidated foetal calf serum (DFCS) to initiate cholesterol starvation and up regulate LDL receptors. Cells were collected by centrifugation and seeded at 1×10^5/well. Appropriate amounts of cholesterol (either LDL, microemulsion or nLDL) were then added after filtration (0.2 μm) and the well volume made up to 1 ml with RPMI containing 5% (v/v) DFCS. After 72 hours an aliquot of each well was diluted with PBS and the number of cells present determined in triplicate by Coulter Counter. Different concentrations were repeated four or eight times depending on the experiment. Three wells per experiment were checked at random before commencement of incubation to ensure a uniform cell density was achieved. […] In all cases, the mean starting cell densities of control resells were between 0.95 and 1.05×10^5 cells/ml.

[2] = Particle size by photon correlation spectroscopy; format: physicochemical; conditions: for Peptide concentration producing increases in diameter: FIG. 8; for Effect of increasing peptide concentration on particle diameter: FIG. 8, Number Mean Diameter
Experimental: Particle size analysis was carried out using photon correlation spectroscopy (Zetasizer® Model 4, Malvern Instruments, Malvern, (UK). Before analysis samples were diluted with Tris-HCl buffer (0.01M) and filtered (0.2 μm). Sizing measurements were carried out at a fixed angle of 90° to the incident beam. The correlator was operated in parallel mode to allow for more accurate size distribution measurements. The cumulants method of analysis was used to calculate the mean sample size weighted according to the intensity of scattered light (z-average diameter). Since this diameter is weighted strongly on favour of large particles, Rayleigh theory was used to convert intensity distributions into number distributions [^12]. The viscosity and refractive index values of pure water were used in the size calculations. All results quoted are the mean and standard deviation of at least 10 measurements.

[3] = Zeta potential measurement; format: physicochemical; conditions: for Zeta potential increase at low peptide concentrations: below 0.2 moles/mole CO, diameter unchanged; for Changes of mean number diameter and zeta potential in altered surface lipid formulations (FIG. 10): microemulsion formulations with PC, SM, UC, TO, CO; for Zeta potential reached with increasing peptide concentration: plateau / constant value, FIG. 8, pH 8.0 Tris, 25° C.
Experimental: Samples were diluted 1 in 5 with 0.01M Tris buffer (pH 8.0) and zeta potential measured at 25° C. using the Zetasizer® 4 (Malvern Instruments). The applied voltage was 150V in each case and duty cycling was used to limit the cell current to 20 mA. All results quoted are the mean and standard deviation of at least 10 measurements.

[4] = tested on: B16 cells; assay: 14C-nLDL cell binding assay at 4° C.; conditions: peptide 0.03 mol/mol cholesterol
Experimental: The required quantity of 14C-cholesteryl oleate (0.5 μCi-/mmol CO, supplied dissolved in toluene) was mixed if required with ten times its volume of DMSO prior to addition to stirred nLDL heated at 55° C. in a water bath. After incubation for 5 hours the mixture was passed down a Sephadex G-25M gel exclusion chromatography column (bed volume 10 ml) eluted with PBS. Fractions (1 ml) were collected their absorbance (300 nm) and 14C-cholesteryl oleate activity measured. Labelled preparations were filter sterilised (0.2 μm) and stored at 4° C. under N2 before use.
B16 cells were maintained in RPM: 1640 medium supplemented with 10% v/v FCS incubated at 37° C. in a 5% CO2 in air atmosphere. Confluent cultures were trypsinised, harvested and re-seeded at a dilution of 1 in 20 in fresh medium.
B16 cells were harvested in the log growth phase, washed by centrifugation and re-seeded into 24 well plates 1×10^5 cells/ml in media containing 10 v/v DFCS. After overnight incubation the cells were cooled to 4° C. for 1 hour, the media aspirated and replaced with ice cold media containing 10% v/v DFCS, supplemented with 14C-nLDL at a cholesterol concentration of 0.08 mmol/l. Four replicate wells were used for each concentration. Cells were then incubated at 4° C. for 4 hours with occasional rocking, the media aspirated and cells washed three times with ice cold PBS/BSA buffer (2 mg/ml BSA in PBS) followed by two ten minute incubations with ice cold PBS/BSA. Three final washes with ice cold PBS were then conducted. The 14C-cholesteryl oleate was extracted with hexane/isocropanol for 30 minutes at room temperature, aspirated and then mixed with 3 ml of scintillation fluid prior to counting. Cellular protein left in the well after extraction was assayed using Peterson's modification of the Lowry method^14. Sodium deoxycholate (1.5 mg/ml) was added to solubilise the protein, which was then precipitated by the addition of trichloroacetic acid (72% w/v), pelleted by centrifugation (5,000 rpm 10 minutes), the supernatant discarded and the pellet solubilised in Lowry reagent at room temperature for 20 minutes. Folin Ciocalteu's reagent was added, the solutions mixed and the colour allowed to develop for 30 minutes prior to absorbance measurements at 690 nm using a plate reader. A calibration curve was clotted from BSA standards ranging from 20 to 200 μg/ml.

In the case of “Peptide A: eleven amino acids Apo B binding site peptide with both C and N terminal lipid anchors (FIG. 7) ({lipid anchor}-LRLTRKRGLKL; not fully specified (C-terminus); reading uncertain; also: C-terminal lipid anchor)”, the “Growth of U937 cells induced by different nLDL preparations (FIG. 4)” value [1] is reported as “least effective”, the “Peptide concentration producing increases in diameter” value [2] is reported as 0.5 moles /mole CO and the “Effect of increasing peptide concentration on particle diameter” value [2] is reported as “Below 0.5 moles/mole Co Peptide A has no effect on size”. For the same substance, the “Difference in zeta potential between the lipid formulations” value ([3]; FIG. 10) was “significant difference in zeta potential between the lipid formulations”, the “Zeta potential increase at low peptide concentrations” value (shortened to “Zeta potential increase”) [3] was “roughly equal” and the “Changes of mean number diameter and zeta potential in altered surface lipid formulations (FIG. 10)” value (“Changes” for short) [3] was “reversal of zeta potential with little change in diameter”. The “Zeta potential reached with increasing peptide concentration” value [3] was “around +17 mV”.
With “Peptide B: eleven amino acid Apo B binding site peptide without the C-terminal cholesterol anchor (FIG. 7) ({lipid anchor}-GTTRLTRKRGLKL; not fully specified; reading uncertain)” the “Growth of U937 cells induced by different nLDL preparations (FIG. 4)” value [1] was “greatest increase in proliferation”, the “Effect of increasing peptide concentration on particle diameter” value [2] was “size also remains constant; also recorded: no effect at any concentration” and the “Zeta potential increase” value [3] was “roughly equal”. The “Changes” value [3] was “reversal of zeta potential with little change in diameter”, the “Zeta potential reached with increasing peptide concentration” value [3] was “~+15 mV” and the “Total binding curve to B16 cells (FIG. 11)” value (from here on “Total binding curve”) [4] was “saturable increase in total binding”.
For “Peptide C: twenty two amino acid peptide containing the Apo B binding region, with both lipid anchors (FIG. 7) ({lipid anchor}-YKLQGTTRLTRKRGLKLATALS; not fully specified (C-terminus); reading uncertain; also: C-terminal lipid anchor)”, the “Growth of U937 cells induced by different nLDL preparations (FIG. 4)” value [1] was “greatest increase in proliferation”, the “Peptide concentration producing increases in diameter” value [2] was 0.2 moles /mole CO and the “Effect of increasing peptide concentration on particle diameter” value [2] was “diameter almost doubles”. The “Zeta potential increase” value [3] was “double the effect”, the “Effect of peptide on zeta potential” value ([3]; increasing peptide concentrations, FIG. 8) was “reversal of zeta potential” and the “Changes” value [3] was “large alterations in both parameters”. For the same substance, the “Total binding curve” value [4] was “saturable increase in total binding”.
For “Peptide D: twenty two amino acid peptide with the cholesterol anchor removed (FIG. 7) (YKLEGTTRLTRKRGLKLATALS; also: lipid anchor, cholesterol anchor removed)”, the “Growth of U937 cells induced by different nLDL preparations (FIG. 4)” value [1] was “greatest increase in proliferation” and the “Total binding curve” value [4] was “saturable increase in total binding”.
With “Peptide E: random, non Apo B binding region sequence based on the amino acids of the previous peptides (FIG. 7) (TGKRYRLKTLRTLKKTSLLEAA; ()..() Synthesised peptide analogue of the Apo B 100 binding site)” the “Growth of U937 cells induced by different nLDL preparations (FIG. 4)” value [1] was “least effective” and the “Total binding curve” value [4] was “saturable increase in total binding”.
